Data published in article PMC11574045, “A cofactor-induced repressive type of transcription factor condensation can be induced by synthetic peptides to suppress tumorigenesis” (The EMBO Journal, 2024).

B1: ADNP (protein, UniProt Q9H2P0 1-1102, looked up)
Activity-dependent …: MFQLPVNNLGSLRKARKTVKKILSDIGLEYCKEHIEDFKQFEPNDFYLKNTTWEDVGLWDPSLTKNQDYRTKPFCCSACPFSSKFFSAYKSHFRNVHSEDFENRILLNCPYCTFNADKKTLETHIKIFHAPNASAPSSSLSTFKDKNKNDGLKPKQADSVEQAVYYCKKCTYRDPLYEIVRKHIYREHFQHVAAPYIAKAGEKSLNGAVPLGSNAREESSIHCKRCLFMPKSYEALVQHVIEDHERIGYQVTAMIGHTNVVVPRSKPLMLIAPKPQDKKSMGLPPRIGSLASGNVRSLPSQQMVNRLSIPKPNLNSTGVNMMSSVHLQQNNYGVKSVGQGYSVGQSMRLGLGGNAPVSIPQQSQSVKQLLPSGNGRSYGLGSEQRSQAPARYSLQSANASSLSSGQLKSPSLSQSQASRVLGQSSSKPAAAATGPPPGNTSSTQKWKICTICNELFPENVYSVHFEKEHKAEKVPAVANYIMKIHNFTSKCLYCNRYLPTDTLLNHMLIHGLSCPYCRSTFNDVEKMAAHMRMVHIDEEMGPKTDSTLSFDLTLQQGSHTNIHLLVTTYNLRDAPAESVAYHAQNNPPVPPKPQPKVQEKADIPVKSSPQAAVPYKKDVGKTLCPLCFSILKGPISDALAHHLRERHQVIQTVHPVEKKLTYKCIHCLGVYTSNMTASTITLHLVHCRGVGKTQNGQDKTNAPSRLNQSPSLAPVKRTYEQMEFPLLKKRKLDDDSDSPSFFEEKPEEPVVLALDPKGHEDDSYEARKSFLTKYFNKQPYPTRREIEKLAASLWLWKSDIASHFSNKRKKCVRDCEKYKPGVLLGFNMKELNKVKHEMDFDAEWLFENHDEKDSRVNASKTADKKLNLGKEDDSSSDSFENLEEESNESGSPFDPVFEVEPKISNDNPEEHVLKVIPEDASESEEKLDQKEDGSKYETIHLTEEPTKLMHNASDSEVDQDDVVEWKDGASPSESGPGSQQVSDFEDNTCEMKPGTWSDESSQSEDARSSKPAAKKKATMQGDREQLKWKNSSYGKVEGFWSKDQSQWKNASENDERLSNPQIEWQNSTIDSEDGEQFDNMTDGVAEPMHGSLAGVKLSSQQA
B2: EDF1 (protein, UniProt O60869 2-148, looked up)
Endothelial …: AESDWDTVTVLRKKGPTAAQAKSKQAILAAQRRGEDVETSKKWAAGQNKQHSITKNTAKLDRETEELHHDRVTLEVGKVIQQGRQSKGLTQKDLATKINEKPQVIADYESGRAIPNNQVLGKIERAIGLKLRGKDIGKPIEKGPRAK
B3: EID1 (protein, UniProt Q9Y6B2 1-187, looked up)
EP300-interacting inhibitor …: MSEMAELSELYEESSDLQMDVMPGEGDLPQMEVGSGSRELSLRPSRSGAQQLEEEGPMEEEEAQPMAAPEGKRSLANGPNAGEQPGQVAGADFESEDEGEEFDDWEDDYDYPEEEQLSGAGYRVSAALEEADKMFLRTREPALDGGFQMHYEKTPFDQLAFIEELFSLMVVNRLTEELGCDEIIDRE
B4: AEBP2 (protein, UniProt Q6ZN18 2-517, looked up)
Zinc finger protein AEBP2: AAAITDMADLEELSRLSPLPPGSPGSAARGRAEPPEEEEEEEEEEEEAEAEAVAALLLNGGSGGGGGGGGGGVGGGEAETMSEPSPESASQAGEDEDEEEDDEEEEDESSSSGGGEEESSAESLVGSSGGSSSDETRSLSPGAASSSSGDGDGKEGLEEPKGPRGSQGGGGGGSSSSSVVSSGGDEGYGTGGGGSSATSGGRRGSLEMSSDGEPLSRMDSEDSISSTIMDVDSTISSGRSTPAMMNGQGSTTSSSKNIAYNCCWDQCQACFNSSPDLADHIRSIHVDGQRGGVFVCLWKGCKVYNTPSTSQSWLQRHMLTHSGDKPFKCVVGGCNASFASQGGLARHVPTHFSQQNSSKVSSQPKAKEESPSKAGMNKRRKLKNKRRRSLPRPHDFFDAQTLDAIRHRAICFNLSAHIESLGKGHSVVFHSTVIAKRKEDSGKIKLLLHWMPEDILPDVWVNESERHQLKTKVVHLSKLPKDTALLLDPNIYRTMPQKRLKRTLIRKVFNLYLSKQ
B5: ELF3 (protein, UniProt P78545 1-371, looked up)
ETS-related transcription …: MAATCEISNIFSNYFSAMYSSEDSTLASVPPAATFGADDLVLTLSNPQMSLEGTEKASWLGEQPQFWSKTQVLDWISYQVEKNKYDASAIDFSRCDMDGATLCNCALEELRLVFGPLGDQLHAQLRDLTSSSSDELSWIIELLEKDGMAFQEALDPGPFDQGSPFAQELLDDGQQASPYHPGSCGAGAPSPGSSDVSTAGTGASRSSHSSDSGGSDVDLDPTDGKLFPSDGFRDCKKGDPKHGKRKRGRPRKLSKEYWDCLEGKKSKHAPRGTHLWEFIRDILIHPELNEGLMKWENRHEGVFKFLRSEAVAQLWGQKKKNSNMTYEKLSRAMRYYYKREILERVDGRRLVYKFGKNSSGWKEEEVLQSRN
B6: ELK1 (protein, UniProt P19419 1-428, looked up)
ETS domain-containing protein …: MDPSVTLWQFLLQLLREQGNGHIISWTSRDGGEFKLVDAEEVARLWGLRKNKTNMNYDKLSRALRYYYDKNIIRKVSGQKFVYKFVSYPEVAGCSTEDCPPQPEVSVTSTMPNVAPAAIHAAPGDTVSGKPGTPKGAGMAGPGGLARSSRNEYMRSGLYSTFTIQSLQPQPPPHPRPAVVLPSAAPAGAAAPPSGSRSTSPSPLEACLEAEEAGLPLQVILTPPEAPNLKSEELNVEPGLGRALPPEVKVEGPKEELEVAGERGFVPETTKAEPEVPPQEGVPARLPAVVMDTAGQAGGHAASSPEISQPQKGRKPRDLELPLSPSLLGGPGPERTPGSGSGSGLQAPGPALTPSLLPTHTLTPVLLTPSSLPPSIHFWSTLSPIAPRSPAKLSFQFPSSGSAQVHIPSISVDGLSTPVVLSPGPQKP
B7: EMX1 (protein, UniProt Q04741 1-290, looked up)
Homeobox protein EMX1: MCLAGCTPRKAAAPGRGALPRARLPRTAPAAATMFQPAAKRGFTIESLVAKDGGTGGGTGGGGAGSHLLAAAASEEPLRPTALNYPHPSAAEAAFVSGFPAAAAAGAGRSLYGGPELVFPEAMNHPALTVHPAHQLGASPLQPPHSFFGAQHRDPLHFYPWVLRNRFFGHRFQASDVPQDGLLLHGPFARKPKRIRTAFSPSQLLRLERAFEKNHYVVGAERKQLAGSLSLSETQVKVWFQNRRTKYKRQKLEEEGPESEQKKKGSHHINRWRIATKQANGEDIDVTSND
B8: EN2 (protein, UniProt P19622 1-333, looked up)
Homeobox protein engrailed-2: MEENDPKPGEAAAAVEGQRQPESSPGGGSGGGGGSSPGEADTGRRRALMLPAVLQAPGNHQHPHRITNFFIDNILRPEFGRRKDAGTCCAGAGGGRGGGAGGEGGASGAEGGGGAGGSEQLLGSGSREPRQNPPCAPGAGGPLPAAGSDSPGDGEGGSKTLSLHGGAKKGGDPGGPLDGSLKARGLGGGDLSVSSDSDSSQAGANLGAQPMLWPAWVYCTRYSDRPSSGPRSRKPKKKNPNKEDKRPRTAFTAEQLQRLKAEFQTNRYLTEQRRQSLAQELSLNESQIKIWFQNKRAKIKKATGNKNTLAVHLMAQGLYNHSTTAKEGKSDSE
B9: ENY2 (protein, UniProt Q9NPA8 1-101, looked up)
Transcription and mRNA export …: MVVSKMNKDAQMRAAINQKLIETGERERLKELLRAKLIECGWKDQLKAHCKEVIKEKGLEHVTVDDLVAEITPKGRALVPDSVKKELLQRIRTFLAQHASL
B10: AES (protein, UniProt Q08117 1-197, looked up)
TLE family member 5: MMFPQSRHSGSSHLPQQLKFTTSDSCDRIKDEFQLLQAQYHSLKLECDKLASEKSEMQRHYVMYYEMSYGLNIEMHKQAEIVKRLNGICAQVLPYLSQEHQQQVLGAIERAKQVTAPELNSIIRQQLQAHQLSQLQALALPLTPLPVGLQPPSLPAVSAGTGLLSLSALGSQAHLSKEDKNGHDGDTHQEDDGEKSD
B11: ERCC3 (protein, UniProt P19447 1-782, looked up)
General transcription and DNA …: MGKRDRADRDKKKSRKRHYEDEEDDEEDAPGNDPQEAVPSAAGKQVDESGTKVDEYGAKDYRLQMPLKDDHTSRPLWVAPDGHIFLEAFSPVYKYAQDFLVAIAEPVCRPTHVHEYKLTAYSLYAAVSVGLQTSDITEYLRKLSKTGVPDGIMQFIKLCTVSYGKVKLVLKHNRYFVESCHPDVIQHLLQDPVIRECRLRNSEGEATELITETFTSKSAISKTAESSGGPSTSRVTDPQGKSDIPMDLFDFYEQMDKDEEEEEETQTVSFEVKQEMIEELQKRCIHLEYPLLAEYDFRNDSVNPDINIDLKPTAVLRPYQEKSLRKMFGNGRARSGVIVLPCGAGKSLVGVTAACTVRKRCLVLGNSAVSVEQWKAQFKMWSTIDDSQICRFTSDAKDKPIGCSVAISTYSMLGHTTKRSWEAERVMEWLKTQEWGLMILDEVHTIPAKMFRRVLTIVQAHCKLGLTATLVREDDKIVDLNFLIGPKLYEANWMELQNNGYIAKVQCAEVWCPMSPEFYREYVAIKTKKRILLYTMNPNKFRACQFLIKFHERRNDKIIVFADNVFALKEYAIRLNKPYIYGPTSQGERMQILQNFKHNPKINTIFISKVGDTSFDLPEANVLIQISSHGGSRRQEAQRLGRVLRAKKGMVAEEYNAFFYSLVSQDTQEMAYSTKRQRFLVDQGYSFKVITKLAGMEEEDLAFSTKEEQQQLLQKVLAATDLDAEEEVVAGEFGSRSSQASRRFGTMSSMSGADDTVYMEYHSSRSKAPSKHVHPLFKRFRK
B12: ERF (protein, UniProt P50548 1-548, looked up)
ETS domain-containing …: MKTPADTGFAFPDWAYKPESSPGSRQIQLWHFILELLRKEEYQGVIAWQGDYGEFVIKDPDEVARLWGVRKCKPQMNYDKLSRALRYYYNKRILHKTKGKRFTYKFNFNKLVLVNYPFIDVGLAGGAVPQSAPPVPSGGSHFRFPPSTPSEVLSPTEDPRSPPACSSSSSSLFSAVVARRLGRGSVSDCSDGTSELEEPLGEDPRARPPGPPDLGAFRGPPLARLPHDPGVFRVYPRPRGGPEPLSPFPVSPLAGPGSLLPPQLSPALPMTPTHLAYTPSPTLSPMYPSGGGGPSGSGGGSHFSFSPEDMKRYLQAHTQSVYNYHLSPRAFLHYPGLVVPQPQRPDKCPLPPMAPETPPVPSSASSSSSSSSSPFKFKLQPPPLGRRQRAAGEKAVAGADKSGGSAGGLAEGAGALAPPPPPPQIKVEPISEGESEEVEVTDISDEDEEDGEVFKTPRAPPAPPKPEPGEAPGASQCMPLKLRFKRRWSEDCRLEGGGGPAGGFEDEGEDKKVRGEGPGEAGGPLTPRRVSSDLQHATAQLSLEHRDS

Tested on: HEK293FT cells transfected with TF library
Assay: Screening of TF condensates based on fluorescent puncta
Type: cell-based
Conditions: Figure 1B numerical data; TF library screen, one value per transcriptional factor
Procedure: TF plasmids were automatically added to black-walled 384-well plates at 80 ng per well to reach a final concentration of 1.6 μg/ml. Polyethylenimine (PEI, Sigma) was then added to the plasmid-loaded plates at 240 ng per well (4.8 μg/ml). Subsequently, HEK293FT cells were seeded into the plate at 2000 cells per well. After 60 h, cells were cultured in medium with or without glucose for 12 h, and then fixed with 4% paraformaldehyde (PFA) at room temperature for 30 min. After three washes with PBS, fixed cells were permeabilized with 0.05% Triton X-100 for 15 min. Thereafter, cells were blocked with 5% BSA for 1 h, and then incubated overnight with anti-Flag (Sigma F3165, 1:200) and anti-GAL4 (Abbkine ABP57232, 1:200) primary antibodies at 4 °C. The cells were then gently washed with PBS, followed by being incubated with Alexa Fluor Plus 488 goat anti-mouse IgG secondary antibody (Thermo A32723, 1:400) or Alexa Fluor Plus 488 goat anti-rabbit IgG secondary antibody (Thermo A32731, 1:400) for 1 h. The plates were kept at 4 °C in the dark before being analyzed using an Opera System (Perkin Elmer). Fifty random fields per well were scanned and analyzed using the Columbus Plus Image Data Storage and Analysis System (Perkin Elmer).

B1 was tested. Which “Z score of condensed fraction” value did it give?
Its value is -0.6304.

B2 was tested. Which “Z score of condensed fraction” value did it give?
Its value is -0.3636.

With B3 as the molecule, how does the “Z score of condensed fraction” value read?
Its value is 1.007.

Which “Z score of condensed fraction” value does the source give for B4 here?
The value was 0.1647.

B5 was tested. Which “Z score of condensed fraction” value did it give?
The value was -0.7241.

With B6 as the molecule, how does the “Z score of condensed fraction” value read?
Its value is -0.5027.

How did the “Z score of condensed fraction” value turn out when B7 was run?
Its value is -0.9497.

With B8 as the molecule, how does the “Z score of condensed fraction” value read?
The value was 2.005.

B9 was tested. Which “Z score of condensed fraction” value did it give?
Its value is -0.6608.

How did the “Z score of condensed fraction” value turn out when B10 was run?
Its value is -0.7544.

How did the “Z score of condensed fraction” value turn out when B11 was run?
Its value is -0.7686.

For B12, which “Z score of condensed fraction” value is on record?
Its value is -0.2253.
